# Assay results taken from patent EP4039268A1 (IMBA-Institut für Molekulare Biotechnologie GmbH, dated 2022).
# B1: Klre1 CRD-mouse IgG2a-Fc fusion protein (Fc fusion)
# chain: FRCSCYFFSKEELIWRDSQRACLSLNSSLIRMNKEEMNFFSLKSFFWVGVYYNETRRQWLWEDHSVLPSGLFSKLEANMKNFCASYKSKEAYMEENCANKLTYICKGGGSGGGSGGGS
# B2: Layn CRD-mouse IgG2a-Fc fusion protein (Fc fusion)
# chain: TRRPCYKVIYFHDAFQRLNFEEAKETCMEDGGQLVSIETEDEQRLIEKFIENLLASDGDFWIGLKRLEEKQSNNTACQDLYAWTDGSTSQFRNWYVDEPSCGSEVCVVMYHQPSAPPGIGGSYMFQWNDDRCNMKNNFICKGGGSGGGSGGGS
# B3: Clec2g CRD-mouse IgG2a-Fc fusion protein (Fc fusion)
# chain: VGNKCFYFSEYTSNWTFAQTFCMAQEAQLARFDNEKELNFLMRYKANFDSWIGLHRESSEHPWKWTDNTEYNNMIPIQGVETCAYLSGNGISSSRHYIPRIWICSGGGSGGGSGGGS
# B4: Siglec10 CRD-mouse IgG2a-Fc fusion protein (Fc fusion)
# chain: VQRIVKAQEGLCIFVPCSFSSPEGKWLNRSPLYGYWFKGIRKPSLSFPVATNNKDKVLEWEARGRFQLLGDISKKNCSLLIKDVQWGDSTNYFFRMERGFERFSFKEEFRLQVGGGSGGGSGGGS
# B5: Clec2i CRD-mouse IgG2a-Fc fusion protein (Fc fusion)
# chain: VGNKCFYFSGYPRNWTFAQAFCMAQEAQLARFDNEEELIFLKRFKGDFDCWIGLHRESSEHPWKWTNNTEYNNMNPILGVGRYAYLSSDRISSSRSYINRMWICSGGGSGGGSGGGS
# B6: Vcan CRD-mouse IgG2a-Fc fusion protein (Fc fusion)
# chain: not shown
# B7: Ncan CRD-mouse IgG2a-Fc fusion protein (Fc fusion)
# chain: not shown
# B8: Lgals9_2 CRD-mouse IgG2a-Fc fusion protein (Fc fusion)
# chain: FYTPIPNGLYPSKSIMISGNVLPDATRFHINLRCGGDIAFHLNPRFNENAVVRNTQINNSWGQEERSLLGRMPFSRGQSFSVWIICEGHCFKVAVNGQHMCEYYHRLKNLQDINTLEVAGDIQLTHVQTGGGSGGGSGGGS
# B9: Klri1 CRD-mouse IgG2a-Fc fusion protein (Fc fusion)
# chain: FGNNFYCVFKENTKTWAESQSACEELNSHLVIIDSKAEVENLLLFEMDGWILHKMDGTNSSWLWRNDIKIQNTLTNDSEKKNHSCHYLRGNLFMPDECSAKKSYICEGGGSGGGSGGGS
# B10: Klrk1 CRD-mouse IgG2a-Fc fusion protein (Fc fusion)
# chain: HRNNCYQFFNEEKTWNQSQASCLSQNSSLLKIYSKEEQDFLKLVKSYHWMGLVQIPANGSWQWEDGSSLSYNQLTLVEIPKGSCAVYGSSFKAYTEDCANLNTYICMGGGSGGGSGGGS
# B11: Ly75_1 CRD-mouse IgG2a-Fc fusion protein (Fc fusion)
# chain: QIGSCYQFNNQEILSWKEAYVSCQNQGADLLSIHSAAELAYITGKEDIARLVWLGLNQLYSARGWEWSDFRPLKFLNWDPGTPVAPVIGGSSCARMDTESGLWQSVSCESQQPYVCKGGGSGGGSGGGS
# B12: Klrg2 CRD-mouse IgG2a-Fc fusion protein (Fc fusion)
# chain: SQEQCYYLSEEAQDWEGSQAFCSAHHATLPLLSHTQDFLRKYRITKGSWVGARRGPEGWHWTDGVPLPYQLFPADSEDHPDFSCGGLEEGRLVALDCSSPRPWVCAGGGSGGGSGGGS
# B13: Klrb1c CRD-mouse IgG2a-Fc fusion protein (Fc fusion)
# chain: HRDKCFHVSQVSNTWEEGQADCGRKGATLLLIQDQEELRFLLDSIKEKYNSFWIGLRFTLPDMNWKWINGTTFNSDVLKITGVTENGSCASILGDKVTPESCASDNRWICQGGGSGGGSGGGS
# B14: Atrnl1 CRD-mouse IgG2a-Fc fusion protein (Fc fusion)
# chain: VGDACLRINSSRESYDNAKLYCYNLSGNLASLTTSKEVEFVLDEIQKFTQQKVSPWVGLRKINISYWGWEDMSPFTNTSLQWLPGEPNDSGFCAYLERAAVAGLKANPCTSMADGLVCEGGGSGGGSGGGS
# B15: Cd209b CRD-mouse IgG2a-Fc fusion protein (Fc fusion)
# chain: FLLGNCYFFSKSQRNWNDAVTACKEVKAQLVIINSDEEQTFLQQTSKAKGPTWMGLSDLKKEATWLWVDGSTLSSRFQKYWNRGEPNNIGEEDCVEFAGDGWNDSKCELKKFWICKGGGSGGGSGGGS
# B16: Lgalsl CRD-mouse IgG2a-Fc fusion protein (Fc fusion)
# chain: PFCGHIKGGMRPGKKVLVMGIVDLNPESFAISLTCGDSEDPPADVAIELKAVFTDRQLLRNSCISGERGEEQSAIPYFPFIPDQPFRVEILCEHPRFRVFVDGHQLFDFYHRIQTLSAIDTIKINGDLQIGGGSGGGSGGGS
# B17: Ly75_2 CRD-mouse IgG2a-Fc fusion protein (Fc fusion)
# chain: NNGFCYLLANESSSWDAAHLKCKAFGADLISMHSLADVEVVVTKLHNGDVKKEIWTGLKNTNSPALFQWSDGTEVTLTYWNENEPSVPFNKTPNCVSYLGKLGQWKVQSCEKKLRYVCKGGGSGGGSGGGS
# B18: Ly75_5 CRD-mouse IgG2a-Fc fusion protein (Fc fusion)
# chain: IEGSEYWFVADPHLNYEEAVLYCASNHSFLATITSFTGLKAIKNKLANISGEEQKWWVKTSENPIDRYFLGSRRRLWHHFPMTFGDECLHMSAKTWLVDLSKRADCNAKLPFICEGGGSGGGSGGGS
# B19: Colec12 CRD-mouse IgG2a-Fc fusion protein (Fc fusion)
# chain: FTDKCYYFSLEKEIFEDAKLFCEDKSSHLVFINSREEQQWIKKHTVGRESHWIGLTDSEQESEWKWLDGSPVDYKNWKAGQPDNWGSGHGPGEDCAGLIYAGQWNDFQCDEINNFICEGGGSGGGSGGGS
# B20: Clec5a CRD-mouse IgG2a-Fc fusion protein (Fc fusion)
# chain: HQGKCFFFSFSESPWKDSMDYCATQGSTLAIVNTPEKLKYLQDIAGIENYFIGLVRQPGEKKWRWINNSVFNGNVTNQDQNFDCVTIGLTKTYDAASCEVSYRWICEGGGSGGGSGGGS
# B21: Ly75_10 CRD-mouse IgG2a-Fc fusion protein (Fc fusion)
# chain: YGGHCYASDQVLHSFSEAKQVCQELDHSATVVTIADENENKFVSRLMRENYNITMRVWLGLSQHSLDQSWSWLDGLDVTFVKWENKTKDGDGKCSILIASNETWRKVHCSRGYARAVCKIGGGSGGGSGGGS
# B22: Bcan CRD-mouse IgG2a-Fc fusion protein (Fc fusion)
# chain: not shown
# B23: Clec7a CRD-mouse IgG2a-Fc fusion protein (Fc fusion)
# chain: HGKSCYLFSFSGNSWYGSKRHCSQLGAHLLKIDNSKEFEFIESQTSSHRINAFWIGLSRNQSEGPWFWEDGSAFFPNSFQVRNTAPQESLLHNCVWIHGSEVYNQICNTSSYSICEGGGSGGGSGGGS
# B24: Lgals6_2 CRD-mouse IgG2a-Fc fusion protein (Fc fusion)
# chain: YVGALQGGFTVRRTIIIKGYVLPTAKTFAINFRVGSSEDIALHINPRIGDCLVRNSYMNGSWGTEERMVAYNPFGPGQFFDLSIRCGMDRFKVFANGIHLFNFSHRFQALRKINTLEINGDLTLSYVHIGGGSGGGSGGGS
# B25: Clec6a CRD-mouse IgG2a-Fc fusion protein (Fc fusion)
# chain: FGSSCYLISTKENFWSTSEQNCVQMGAHLVVINTEAEQNFITQQLNESLSYFLGLSDPQGNGKWQWIDDTPFSQNVRFWHPHEPNLPEERCVSIVYWNPSKWGWNDVFCDSKHNSICEGGGSGGGSGGGS
# B26: Clec2h CRD-mouse IgG2a-Fc fusion protein (Fc fusion)
# chain: FGSKCFYFSEDMGNWTFSQSSCVASNSHLALFHSLEELNFLKRYKGTSDHWIGLHRASTQHPWIWTDNTEYSNLVLTRGGGECGFLSDNGISSGRSYTHRKWICSGGGSGGGSGGGS
# B27: Klrg1 CRD-mouse IgG2a-Fc fusion protein (Fc fusion)
# chain: NGSHCYYFSMEKKDWNSSLKFCADKGSHLLTFPDNQGVKLFGEYLGQDFYWIGLRNIDGWRWEGGPALSLRILTNSLIQRCGAIHRNGLQASSCEVALQWICKGGGSGGGSGGGS
# Tests used:
# Assay in all cases: ELISA screen
# [1] = target: T1, full-length trimeric SARS-CoV-2 Spike protein (Spike-H6) (SARS-CoV-2, N-glycosylated (22 N-glycosylation sites))
# T1 construct: also called trimeric Spike; full-length Spike-H6
# [2] = target: T2, human recombinant soluble ACE2 (human, UniProt Q9BYF1 18-740)
# T2 construct: also called hrsACE2
# T2 sequence (Q9BYF1 18-740 limits assumed): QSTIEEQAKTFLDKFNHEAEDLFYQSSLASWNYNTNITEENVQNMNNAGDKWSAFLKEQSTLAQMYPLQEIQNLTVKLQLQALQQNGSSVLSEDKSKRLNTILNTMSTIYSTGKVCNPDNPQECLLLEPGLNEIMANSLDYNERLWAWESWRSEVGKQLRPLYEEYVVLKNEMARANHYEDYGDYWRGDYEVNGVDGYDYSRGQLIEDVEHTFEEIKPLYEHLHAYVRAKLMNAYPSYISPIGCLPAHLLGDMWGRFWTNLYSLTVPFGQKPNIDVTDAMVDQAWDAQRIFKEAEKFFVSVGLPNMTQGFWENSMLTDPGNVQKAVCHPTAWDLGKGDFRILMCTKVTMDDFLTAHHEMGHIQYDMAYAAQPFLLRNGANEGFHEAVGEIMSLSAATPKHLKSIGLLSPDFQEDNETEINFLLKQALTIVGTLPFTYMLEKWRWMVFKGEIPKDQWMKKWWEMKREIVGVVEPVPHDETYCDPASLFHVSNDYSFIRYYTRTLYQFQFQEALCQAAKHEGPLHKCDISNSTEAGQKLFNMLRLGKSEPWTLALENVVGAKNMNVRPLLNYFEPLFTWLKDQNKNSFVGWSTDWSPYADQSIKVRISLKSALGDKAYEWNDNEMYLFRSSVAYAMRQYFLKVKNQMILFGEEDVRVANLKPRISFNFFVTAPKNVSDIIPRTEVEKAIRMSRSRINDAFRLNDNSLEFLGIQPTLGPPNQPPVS
# [3] = target: T3, monomeric SARS-CoV-2 receptor binding domain (RBD-H6) (SARS-CoV-2, UniProt P0DTC2 319-541)
# T3 construct: Made in HEK293-6E cells; also called RBD Spike; monomeric RBD
Binder,Mean normalized OD [1],Mean normalized OD [2],Mean normalized OD [3]
B1,-0.002 OD,-0.006 OD,0.045 OD
B2,0.002 OD,-0.005 OD,0 OD
B3,-0.241 OD,-0.722 OD,–
B4,0.046 OD,–,0.015 OD
B5,-0.61 OD,-0.249 OD,–
B6,0.064 OD,–,0.052 OD
B7,-0.09 OD,-0.589 OD,–
B8,0.056 OD,–,0.033 OD
B9,0.002 OD,-0.003 OD,0.001 OD
B10,0 OD,-0.003 OD,0 OD
B11,-0.434 OD,-0.571 OD,–
B12,-0.044 OD,-0.013 OD,0.043 OD
B13,0.001 OD,-0.004 OD,0.004 OD
B14,0.001 OD,-0.003 OD,0.001 OD
B15,-0.032 OD,-0.094 OD,0.113 OD
B16,0.006 OD,-0.004 OD,0.001 OD
B17,-0.319 OD,-0.135 OD,–
B18,-0.17 OD,-0.106 OD,–
B19,0.04 OD,–,0.027 OD
B20,0 OD,-0.005 OD,-0.001 OD
B21,-0.002 OD,-0.02 OD,0.014 OD
B22,-0.111 OD,-0.538 OD,–
B23,0 OD,-0.001 OD,0.004 OD
B24,0.135 OD,–,–
B25,0.003 OD,-0.032 OD,0.029 OD
B26,-0.387 OD,-0.707 OD,–
B27,0.003 OD,-0.843 OD,0.003 OD
